Read-outs that look alike come from different tables or passages of the source.
T1: Botulinum neurotoxin serotype B (BoNT/B) holotoxin (Clostridium botulinum, UniProt P10844 2-1291)
T1 sequence: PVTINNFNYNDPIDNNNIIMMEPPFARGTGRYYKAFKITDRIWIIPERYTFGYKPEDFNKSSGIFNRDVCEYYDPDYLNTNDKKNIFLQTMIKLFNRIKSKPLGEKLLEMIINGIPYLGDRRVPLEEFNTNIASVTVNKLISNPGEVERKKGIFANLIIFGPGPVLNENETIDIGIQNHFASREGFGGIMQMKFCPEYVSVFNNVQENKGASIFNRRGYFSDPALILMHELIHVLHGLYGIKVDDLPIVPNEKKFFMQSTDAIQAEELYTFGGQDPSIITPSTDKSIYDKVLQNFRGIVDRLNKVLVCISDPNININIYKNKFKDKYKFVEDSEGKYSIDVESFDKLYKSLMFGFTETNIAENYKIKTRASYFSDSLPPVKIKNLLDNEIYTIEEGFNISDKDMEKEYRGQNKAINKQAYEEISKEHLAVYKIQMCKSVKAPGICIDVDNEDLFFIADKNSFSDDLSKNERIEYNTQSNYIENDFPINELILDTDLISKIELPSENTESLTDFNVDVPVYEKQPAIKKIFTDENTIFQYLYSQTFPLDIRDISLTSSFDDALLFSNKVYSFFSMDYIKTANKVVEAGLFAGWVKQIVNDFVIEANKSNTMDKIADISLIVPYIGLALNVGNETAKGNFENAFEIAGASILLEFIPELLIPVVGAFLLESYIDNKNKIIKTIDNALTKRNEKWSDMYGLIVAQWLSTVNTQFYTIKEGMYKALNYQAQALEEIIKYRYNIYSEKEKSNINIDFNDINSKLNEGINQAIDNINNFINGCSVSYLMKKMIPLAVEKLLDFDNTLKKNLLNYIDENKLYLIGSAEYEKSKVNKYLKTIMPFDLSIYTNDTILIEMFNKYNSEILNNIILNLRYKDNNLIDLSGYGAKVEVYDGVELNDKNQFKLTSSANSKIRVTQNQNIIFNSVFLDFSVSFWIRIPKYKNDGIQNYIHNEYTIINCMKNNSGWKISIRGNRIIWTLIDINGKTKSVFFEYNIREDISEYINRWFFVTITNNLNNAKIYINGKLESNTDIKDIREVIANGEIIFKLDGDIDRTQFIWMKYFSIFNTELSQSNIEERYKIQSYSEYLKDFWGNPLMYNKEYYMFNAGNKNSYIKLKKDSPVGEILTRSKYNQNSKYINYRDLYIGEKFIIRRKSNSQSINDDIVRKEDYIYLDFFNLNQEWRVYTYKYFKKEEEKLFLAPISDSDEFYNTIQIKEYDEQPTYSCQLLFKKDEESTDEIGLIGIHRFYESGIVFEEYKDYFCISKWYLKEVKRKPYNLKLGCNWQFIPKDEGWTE

B1: Stx2-D2 (VHH)
VHH: QVQLVESGGGLVQPGGSLGLSCAMSGTTQDYSAVGWFRQAPGKEREGVSCISRSGRRTNYADSVRGRFTISRDNAKDTVYLQMNSLKPDDTAVYYCAARKTDMSDPYYVGCNGMDYWGKGTLVTVSS
B2: Stx-A4 (VHH)
VHH: QVQLVESGGGLVQPGGSLRLSCAASGFTLGSYHIGWFRHPPGKEREGTSCLSSRGDYTKYAEAVKGRFTISRDNTKSTVYLQMNNLKPEDTGIYVCAAIRPVLSDSHCTLAARYNYWGQGTQVTVSS
B3: Stx2-A6 (VHH)
VHH: QVQLVESGGGLVQPGGSLKLSCAASGFTLADYVTVWFRQAPGKSREGVSCISSSRGTPNYADSVKGRATVSRNNANNTVYLQMNGLKPDDTAIYYCAAIRPARLRAYRECLSSQAEYDYWGQGTQVTVSS
B4: ciB-B5 (VHH)
VHH: QVQLVESGGGLVQPGGSLRLSCAASGQSLDNYIIGWFRQAPGKEREGVSCIDRTGTVTHYADSVKGRFTISTDNVKNTVYLEMNDLKPEDTATYFCAAERRWGVVSVCVISDYYFDSWGQGTQVTVSS
B5: Stx2-G1 (VHH)
VHH: QVQLVESGGGLVQPGESLRLSCVASASTFSTSLMGWVRQAPGKGLESVAEVRTTGGTFYAKSVAGRFTISRDNAKNTLYLQMNSLKAEDTGVYYCTAGAGPIATRYRGQGTQVTVSS
B6: Stx2-G9 (VHH)
VHH: QVQLVESGGGLVQPGGSLTLSCTASGFTLNSYKIGWFRQAPGKEREGVSCINSGGNLRSVEGRFTISRDNTKNTVSLHMDSLKPEDTGVYHCAAAPALNVFSPCVLAPRYDYWGQGTQVTVSS
B7: Stx2-H6 (VHH)
VHH: QVQLVETGGGLVQPGGSLRLSCAASGFSLDPYVIGWFRQAPGKEREGVSCITSRAASRTSVDSVNERFTISRDNAKNTVDLHINNLKPEDSGVYYCAAVPPAKLPLFSLCRSLPAKYDYWGQGTQVTVSS
B8: A9/D4 heterodimer VNA (designed binder)
chain: QVQLVETGGGLAQAGDSLRLSCVEPGRTLDMYAMGWIRQAPGEEREFVASISGVGGSPRYADSVKGRFTISKDNTKSTIWLQMNSLKPEDTAVYYCAAGGDIYYGGSPQWRGQGTRVTVSSEPKTPKPQGGGGSGGGGSGGGGSQVQLVESGGGLVQAGGSLRLSCAASGRINGDYAMGWFRQAPGEEREFVAVNSWIGGSTYYTDSVKGRFTLSRDNAKNTLSLQMNSLKPEDTAVYYCAAGHYTDFPTYFKEYDYWGQGTQVTVSSEPKTPKPQ
B9: Stx1-A9 (VHH)
VHH: QVQLVETGGGLAQAGDSLRLSCVEPGRTLDMYAMGWIRQAPGEEREFVASISGVGGSPRYADSVKGRFTISKDNTKSTIWLQMNSLKPEDTAVYYCAAGGDIYYGGSPQWRGQGTRVTVSS
B10: A9/A5/G1 heterotrimer VNA (designed binder)
chain: QVQLVETGGGLAQAGDSLRLSCVEPGRTLDMYAMGWIRQAPGEEREFVASISGVGGSPRYADSVKGRFTISKDNTKSTIWLQMNSLKPEDTAVYYCAAGGDIYYGGSPQWRGQGTRVTVSSEPKTPKPQGGGGSGGGGSGGGGSQVQLVESGGGLVQPGGSLRLSCAALEFTLEDYAIAWFRQAPGKEREGVSCISKSGVTKYTDSVKGRFTVARDNAKSTVILQMNNLRPEDTAVYNCAAVRPVFVDSVCTLATRYTYWGEGTQVTVSSAHHSEDPGGGGSGGGGSGGGGSQVQLVESGGGLVQPGESLRLSCVASASTFSTSLMGWVRQAPGKGLESVAEVRTTGGTFYAKSVAGRFTISRDNAKNTLYLQMNSLKAEDTGVYYCTAGAGPIATRYRGQGTQVTVSSAHHSEDP
B11: Stx2-D10 (VHH)
VHH: QVQLVETGGLVQAGGSLRLSCAASGVPFSDYTMAWFRQAPGKEREVVARITWRGGGPYYGNSGNGRFAISRDIAKSMVYLHMDSLKPEDTAVYYCAASRLRPALASMASDYDYWGQGTQVSVSS
B12: ciB-A11/B5 heterodimer (designed binder)
chain: QVQLVEGGGGLVQPGGALRLSCAASVFGMDYYYIGWVRQAPGKEREGVSCISNIGRTHYADSVKGRFTISRDNAKNTVYLQMNSLKPEDTAVYYCAAAPLVGNYCPASYEYESWGQGTQVTVSSAHHSEDPSGGGGSGGGGSGGGGSQVQLVESGGGLVQPGGSLRLSCAASGQSLDNYIIGWFRQAPGKEREGVSCIDRTGTVTHYADSVKGRFTISTDNVKNTVYLEMNDLKPEDTATYFCAAERRWGVVSVCVISDYYFDSWGQGTQVTVSSAHHSEDPS
B13: ciB-A11 (VHH)
VHH: QVQLVEGGGGLVQPGGALRLSCAASVFGMDYYYIGWVRQAPGKEREGVSCISNIGRTHYADSVKGRFTISRDNAKNTVYLQMNSLKPEDTAVYYCAAAPLVGNYCPASYEYESWGQGTQVTVSS
B14: Stx-A5 (VHH)
VHH: QVQLVESGGGLVQPGGSLRLSCAALEFTLEDYAIAWFRQAPGKEREGVSCISKSGVTKYTDSVKGRFTVARDNAKSTVILQMNNLRPEDTAVYNCAAVRPVFVDSVCTLATRYTYWGEGTQVTVSS
B15: Stx1-D4 (VHH)
VHH: QVQLVESGGGLVQAGGSLRLSCAASGRINGDYAMGWFRQAPGEEREFVAVNSWIGGSTYYTDSVKGRFTLSRDNAKNTLSLQMNSLKPEDTAVYYCAAGHYTDFPTYFKEYDYWGQGTQVTVSS
B16: A5/D10 heterodimer VNA (designed binder)
chain: QVQLVESGGGLVQPGGSLRLSCAALEFTLEDYAIAWFRQAPGKEREGVSCISKSGVTKYTDSVKGRFTVARDNAKSTVILQMNNLRPEDTAVYNCAAVRPVFVDSVCTLATRYTYWGEGTQVTVSSAHHSEDPGGGGSGGGGSGGGGSQVQLVETGGLVQAGGSLRLSCAASGVPFSDYTMAWFRQAPGKEREVVARITWRGGGPYYGNSGNGRFAISRDIAKSMVYLHMDSLKPEDTAVYYCAASRLRPALASMASDYDYWGQGTQVSVSSEPKTPKPQ
B17: G1/D10 heterodimer VNA (designed binder)
chain: QVQLVESGGGLVQPGESLRLSCVASASTFSTSLMGWVRQAPGKGLESVAEVRTTGGTFYAKSVAGRFTISRDNAKNTLYLQMNSLKAEDTGVYYCTAGAGPIATRYRGQGTQVTVSSAHHSEDPGGGGSGGGGSGGGGSQVQLVETGGLVQAGGSLRLSCAASGVPFSDYTMAWFRQAPGKEREVVARITWRGGGPYYGNSGNGRFAISRDIAKSMVYLHMDSLKPEDTAVYYCAASRLRPALASMASDYDYWGQGTQVSVSSEPKTPKPQ

Assays:
[1] = biological target: Shiga toxin 1 (Stx1) (Escherichia coli O157:H7) (UniProt P08026); test: dilution ELISA, HRP-anti-E-tag
[2] = biological target: Shiga toxin 1 (Stx1) (Escherichia coli O157:H7) (UniProt P08026); test: SPR, Stx1 immobilised
[3] = biological target: Shiga toxin 1 (Stx1) (Escherichia coli O157:H7) (UniProt P08026); test: cell-based or functional assay
[4] = biological target: T1, Botulinum neurotoxin serotype B …; test: SPR; chip ligand for BoNT/B not described
[5] = biological target: Shiga toxin 1 (Stx1) (Escherichia coli O157:H7) (UniProt P08026)
[6] = biological target: Shiga toxin 1 (Stx1) (Escherichia coli O157:H7) (UniProt P08026); remark: listed apart in the source

Sequence of Shiga toxin 1 (Stx1) (Escherichia coli O157:H7) (P08026 23-315): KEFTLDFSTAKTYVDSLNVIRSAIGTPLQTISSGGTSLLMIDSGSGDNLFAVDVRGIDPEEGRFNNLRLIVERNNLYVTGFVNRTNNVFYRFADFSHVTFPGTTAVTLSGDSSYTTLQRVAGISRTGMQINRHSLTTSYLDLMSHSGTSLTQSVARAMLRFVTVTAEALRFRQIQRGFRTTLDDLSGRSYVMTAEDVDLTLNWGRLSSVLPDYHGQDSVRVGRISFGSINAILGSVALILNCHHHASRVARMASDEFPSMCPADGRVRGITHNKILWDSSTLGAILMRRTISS

Binder | EC50 [1] [nM] | Kd [2] [nM] | IC50, Vero cell neutralization assay [3] [nM] | Kd [4] [nM] | EC50 (read off the curve) [5] [nM] | EC50 (read off the curve) [6] [nM]
B1 | > 1000 |  |  |  |  | 
B2 | 30 | 7.2 | > 330 |  |  | 
B3 | > 1000 |  |  |  |  | 
B4 |  |  |  | 0.97 |  | 
B5 | > 1000 |  | > 1000 |  |  | 
B6 | > 1000 |  | > 1000 |  |  | 
B7 | > 1000 |  | > 1000 |  |  | 
B8 | 0.6 | 1.2 | 1 |  | 0.6 | 
B9 | 10 | 7.6 | 10 |  |  | 
B10 | 0.5 | 0.46 | 0.05 |  |  | 0.5
B11 | > 1000 |  | > 1000 |  |  | 
B12 |  |  |  | 5.3 |  | 
B13 |  |  |  | 0.84 |  | 
B14 | 15 | 12.5 | 100 |  |  | 
B15 | 0.5 | 0.128 | > 1000 |  | 0.5 | 
B16 | 30 | 9.2 | 50 |  |  | 
B17 | > 1000 |  | > 100 |  |  | 

— US20140294826A1 (TUFTS UNIVERSITY, published 2014)
